One substance from publication PMC5931990 can be followed below.

For this assay, the target named is Mouse CLIC6 CLIC domain (residues 363-597) (mouse) (UniProt Q8BHB9). In words: SEC; analytical gel filtration after 10 minutes with 0 to 2 mM H2O2; running buffer without reducing or oxidative agents.

As to “Mouse CLIC6 CLIC domain (residues 363-597) (from UniProt Q8BHB9 363-596) (domain or fragment)”, the stoichiometry N came out at 2.
